# T1: His-tagged WT APPL1 (5−419) (human, UniProt Q9UKG1 5-419)
# T1 sequence (looked up): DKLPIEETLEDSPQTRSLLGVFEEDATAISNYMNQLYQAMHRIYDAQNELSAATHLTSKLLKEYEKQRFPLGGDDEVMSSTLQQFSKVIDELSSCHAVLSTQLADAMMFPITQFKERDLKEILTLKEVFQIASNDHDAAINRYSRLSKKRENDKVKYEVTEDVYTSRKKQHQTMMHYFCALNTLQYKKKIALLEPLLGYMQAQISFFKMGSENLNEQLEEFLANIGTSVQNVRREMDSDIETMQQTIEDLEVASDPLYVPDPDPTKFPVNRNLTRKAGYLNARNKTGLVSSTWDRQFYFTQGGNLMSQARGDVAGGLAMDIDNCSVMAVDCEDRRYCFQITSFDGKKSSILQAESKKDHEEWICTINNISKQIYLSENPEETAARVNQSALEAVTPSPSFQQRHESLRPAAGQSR
# Assays:
# [1] = target: T1, His-tagged WT APPL1 (5−419); experiment: SPR
# AUC = target: the molecule itself; experiment: AUC
Kd [1] [nM],koff [1] [s⁻¹],kon [1] [M⁻¹ s⁻¹],Binder,Kd (AUC) [nM]
900 ± 700,0.0012,1300,"full-length Rab5-Q79L coupled to the SPR biosensor chip (natural protein, human, UniProt P20339-1 1-215, looked up) MASRGATRPNGPNTGNKICQFKLVLLGESAVGKSSLVLRFVKGQFHEFQESTIGAAFLTQTVCLDDTTVKFEIWDTAGLERYHSLAPMYYRGAQAAIVVYDITNEESFARAKNWVKELQRQASPNIVIALSGNKADLANKRAVDFQEAQSYADDNSLLFMETSAKTSMNVNEIFMAIAKKLPKNEPQNPGANSARGRGVDLTEPTQPTRNQCCSN",–
–,–,–,"APPL1 BAR domain (residues 5−265), His tag removed (domain or fragment, human) GSHMDKLPIEETLEDSPQTRSLLGVFEEDATAISNYMNQLYQAMHRIYDAQNELSAATHLTSKLLKEYEKQRFPLGGDDEVMSSTLQQFSKVIDELSSCHAVLSTQLADAMMFPITQFKERDLKEILTLKEVFQIASNDHDAAINRYSRLSKKRENDKVKYEVTEDVYTSRKKQHQTMMHYFCALNTLQYKKKIALLEPLLGYMQAQISFFKMGSENLNEQLEEFLANIGTSVQNVRREMDSDIETMQQTIEDLEVASDPLYVPD",130

# From article PMC1933402 (The EMBO Journal, 2007)
